# In article PMC10072977 (Biochemical and Biophysical Research Communications, 2023):
# Target: SARS-CoV-2 WT RBD protein (SARS-CoV-2 wild type, UniProt P0DTC2)
# Assay: ELISA
binder,measurement,value
"rabbit monoclonal antibody (RmAb) 9H1 (antibody, V domains shown) VH: QSVEESGGRLVTPGTPLTLTCTVSGFSLSRYAMSWVRQAPGKGLEWIGIIVDSGHTAYASWAKGRFTISRTSTTVDLKMTSLTTEDTATYFCARETGGGAFYVFEFWGPGTVVTVSS VL: QVLTQTPSSVSAAVGGTVTINCQASEDIYDNLVWYQQKPGQPPKLLIYDASTLAFGVSSRFRGSGSGTHFTLTMRDVQCDDAATYYCQGEFSCSSGDCTAFGGGTEVVVK",binding result,binds
